Experimental data: patent US20100022006, “GAMMA SATELLITE INSULATOR SEQUENCES AND THEIR USE IN PREVENTING GENE SILENCING” (THE GOVT. OF THE USA AS REPRESENTED BY THE SECRETA, published 2010)
Numbering of substitutions follows the chain as printed.

T1: CTCF 11 ZF DNA binding domain (UniProt P49711 P49711:266-577)
T1 sequence: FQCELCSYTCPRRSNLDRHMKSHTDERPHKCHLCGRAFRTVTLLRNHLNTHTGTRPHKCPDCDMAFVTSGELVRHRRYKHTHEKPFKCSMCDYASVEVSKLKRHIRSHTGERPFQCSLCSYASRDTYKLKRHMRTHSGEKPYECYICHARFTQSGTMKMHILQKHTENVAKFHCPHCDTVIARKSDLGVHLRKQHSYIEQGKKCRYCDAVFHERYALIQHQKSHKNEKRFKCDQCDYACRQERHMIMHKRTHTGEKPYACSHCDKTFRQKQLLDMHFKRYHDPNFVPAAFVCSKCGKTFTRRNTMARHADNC

B1: gamma-satellite 8 monomer 8 WT-8 core (dsDNA)
DNA 1: CGAAAATGGGGCCACTGGGTGGCCTGAACGAGCCAAAGGGACTCAGGGTGACACT
DNA 2: AGTGTCACCCTGAGTCCCTTTGGCTCGTTCAGGCCACCCAGTGGCCCCATTTTCG
B2: gamma-satellite 8 monomer 8 Mu3 (dsDNA)
DNA 1: B1 DNA 1 with C12T, C15T, G17A, C23T, C29T
DNA 2: B1 DNA 2 with G27A, G33A, C39T, G41A, G44A
B3: gamma-satellite 8 monomer 8 Mu1 (dsDNA)
DNA 1: B1 DNA 1 with G17A, G18A, G19A, C23T
DNA 2: B1 DNA 2 with G33A, C37T, C38T, C39T
B4: gamma-satellite 8 monomer 8 Mu2 (dsDNA)
DNA 1: B1 DNA 1 with G18A, C23T, C24T, C29T
DNA 2: B1 DNA 2 with G27A, G32A, G33A, C38T
B5: gamma-satellite 8 fragment 10 (monomer 7) (dsDNA)
DNA 1: TGAAAACAGGGAGGCAGGGTGGCATGGCCAGGCCGCAGGGACTATGGTGGACATTGTGG
DNA 2: CCACAATGTCCACCATAGTCCCTGCGGCCTGGCCATGCCACCCTGCCTCCCTGTTTTCA
B6: gamma-satellite 8 fragment 8 (monomer 6) (dsDNA)
DNA 1: AGACAACAGGGCGGCTGGATGGCATGGGCCGATCGTAGGAACCCAGGGAGACATTGAGG
DNA 2: CCTCAATGTCTCCCTGGGTTCCTACGATCGGCCCATGCCATCCAGCCGCCCTGTTGTCT
B7: gamma-satellite 8 fragment 11 (monomer 8) (dsDNA)
DNA 1: CGAAAATGGGGCCACTGGGTGGCCTGAACGAGCCAAAGGGACTCAGGGTGACACTGAGG
DNA 2: CCTCAGTGTCACCCTGAGTCCCTTTGGCTCGTTCAGGCCACCCAGTGGCCCCATTTTCG
B8: SssI-methylated gamma-satellite 8 fragment (dsDNA)
DNA 1: B7 DNA 1
DNA 2: B7 DNA 2
modifications: 5mC at CpG (SssI)
B9: gamma-satellite 8 fragment 5 (monomer 4) (dsDNA)
DNA 1: CAAAAACAAGGCCGCAGGGTGGCGTGGGCGGGCCGCAGGGACTCAGGTGGAAATTGTGG
DNA 2: CCACAATTTCCACCTGAGTCCCTGCGGCCCGCCCACGCCACCCTGCGGCCTTGTTTTTG
B10: gamma-satellite 8 fragment 6 (monomer 5) (dsDNA)
DNA 1: CAAAAACAGTGCCGCAGTGTGGCCTGGGCGGGCCACAGGGACTCAGGGAGACGTTGAGG
DNA 2: CCTCAACGTCTCCCTGAGTCCCTGTGGCCCGCCCAGGCCACACTGCGGCACTGTTTTTG

Columns and labels:
[1] = target: T1, CTCF 11 ZF DNA binding domain; experiment: footprint; methylation interference on fragment 11: seven contact guanines (3 sense, 4 antisense); 55 bp core of 100 bp fragment printed; conditions: tags: pET16b-11ZF construct, TnT reticulocyte lysate (Promega)
Procedure: (§1) Binding reactions were carried out in buffer containing standard PBS with 5 μM MgCl₂, 0.1 μM ZnSO4, 1 μM DTT, 0.1% NP40, and 10% glycerol in the presence of poly(deoxyinosinic-deoxy-CMP) and salmon sperm DNA. Reaction mixtures of 20 μL final volume were incubated for 30 minutes at room temperature and then analyzed on 5% nondenaturing gel using polyacrylamide gel electrophoresis (PAGE) in 0.5×TBE buffer. For EMSA with in vitro methylated DNA probes, treatment with the SssI-methylase was done as previously described for CTCF-binding fragments DMD4 and DMD7 of the H19 ICR (Kanduri et al., Curr. Biol., 10:853-856, 2000). The extent of methylation was verified by digestion overnight with Sau96I restriction endonuclease. Methylation interference analysis was carried out as described previously (Filippova et al., 1996; ibid).
To determine the contact guanine residues recognized by CTCF in gamma-satellite DNA, methylation interference assays (a method that identifies guanine residues in the CTCF binding site that make contact with CTCF zinc fingers) were conducted using a ³²P-labeled fragment of the gamma-satellite monomer (fragment #11). A strong interference of guanine methylation with CTCF-DNA binding was found in three and four guanine residues on sense and anti-sense strands, respectively (FIG. 5B). […]

[2] = target: T1, CTCF 11 ZF DNA binding domain; experiment: EMSA; mutation knocked down binding; conditions: tags: pET16b-11ZF construct, TnT reticulocyte lysate (Promega)
Procedure: as §1, with “Gamma-satellite monomers from human chromosome X and Y were PCR amplified from genomic DNA, cloned into TA vector and sequenced before their analysis by electrophoretic mobility gel-shift assay (EMSA). Binding” for “Binding”
To confirm in vitro mapping results, four guanine residues within the predicted core sequence were selectively mutated, as indicated in FIG. 12. […] To determine if CTCF binding is methylation-dependent, gamma-satellite 8 PCR fragments were methylated with a SssI methyltransferase. […] It is worth noting that in most previously reported cases, methylation prevents CTCF binding (Ohlsson et al., Trends Genet., 17:520-527, 2001).

[3] = target: T1, CTCF 11 ZF DNA binding domain; experiment: EMSA; among strongest binding; conditions: tags: pET16b-11ZF construct, TnT reticulocyte lysate (Promega); label: 32P
Procedure: as §1, with “Gamma-satellite monomers from human chromosome X and Y were PCR amplified from genomic DNA, cloned into TA vector and sequenced before their analysis by electrophoretic mobility gel-shift assay (EMSA). Binding” for “Binding”
Electrophoretic mobility shift assays (EMSA) were performed. A set of overlapping fragments corresponding to an 1′-mer of the human gamma 8, were radiolabeled and incubated with the in vitro translated 11 ZF DNA binding domain of the CTCF protein. Recombinant luciferase protein prepared by the same in vitro translation reaction was used as a negative control. […] The presence of CTCF-binding sites was also checked in the human alpha-satellite DNA array lacking anti-silencing (insulating) activity. None of 11 alpha-satellite monomers analyzed bound the CTCF protein in vitro.

[4] = target: T1, CTCF 11 ZF DNA binding domain; experiment: EMSA; among strongest binding; PBS, Mg, Zn, poly(dI-dC), room temperature; ~250 bp probe containing the monomer; conditions: tags: pET16b-11ZF construct, TnT reticulocyte lysate (Promega); label: 32P
Procedure: as §1, with “Gamma-satellite monomers from human chromosome X and Y were PCR amplified from genomic DNA, cloned into TA vector and sequenced before their analysis by electrophoretic mobility gel-shift assay (EMSA). Binding” for “Binding”
(§2) Electrophoretic mobility shift assays (EMSA) were performed. A set of overlapping fragments corresponding to an 1′-mer of the human gamma 8, were radiolabeled and incubated with the in vitro translated 11 ZF DNA binding domain of the CTCF protein. […] None of 11 alpha-satellite monomers analyzed bound the CTCF protein in vitro.

[5] = target: Luciferase (in vitro translated control) (UniProt P08659 P08659:1-550); experiment: EMSA; negative control lysate; conditions: tags: Luciferase T7 control DNA (Promega); label: 32P
Sequence of Luciferase (in vitro translated control) (P08659 whole entry, one chain of several): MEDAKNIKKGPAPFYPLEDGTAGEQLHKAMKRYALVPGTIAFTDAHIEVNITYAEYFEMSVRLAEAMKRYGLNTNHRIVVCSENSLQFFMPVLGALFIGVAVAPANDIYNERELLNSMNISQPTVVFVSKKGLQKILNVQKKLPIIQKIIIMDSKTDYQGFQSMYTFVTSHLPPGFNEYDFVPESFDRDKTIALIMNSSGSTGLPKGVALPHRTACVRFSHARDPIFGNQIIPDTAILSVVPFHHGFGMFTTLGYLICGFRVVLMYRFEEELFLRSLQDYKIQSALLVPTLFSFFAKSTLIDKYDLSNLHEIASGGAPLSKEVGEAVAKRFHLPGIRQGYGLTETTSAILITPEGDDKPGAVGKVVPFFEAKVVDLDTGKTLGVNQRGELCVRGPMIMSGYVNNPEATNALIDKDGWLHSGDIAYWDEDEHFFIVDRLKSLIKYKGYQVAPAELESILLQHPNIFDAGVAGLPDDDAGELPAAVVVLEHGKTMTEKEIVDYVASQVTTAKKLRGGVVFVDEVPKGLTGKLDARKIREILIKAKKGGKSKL
Procedure: as §1, with “Gamma-satellite monomers from human chromosome X and Y were PCR amplified from genomic DNA, cloned into TA vector and sequenced before their analysis by electrophoretic mobility gel-shift assay (EMSA). Binding” for “Binding”
as §2

[6] = target: T1, CTCF 11 ZF DNA binding domain; experiment: EMSA; CpG methylation does not affect binding; conditions: tags: pET16b-11ZF construct, TnT reticulocyte lysate (Promega); label: 32P
Procedure: as §1, with “Gamma-satellite monomers from human chromosome X and Y were PCR amplified from genomic DNA, cloned into TA vector and sequenced before their analysis by electrophoretic mobility gel-shift assay (EMSA). Binding” for “Binding”
To confirm in vitro mapping results, four guanine residues within the predicted core sequence were selectively mutated, as indicated in FIG. 12. […] To determine if CTCF binding is methylation-dependent, gamma-satellite 8 PCR fragments were methylated with a SssI methyltransferase. […]

Binder	binding result [2]	binding result [3]	further results
B1	–	–	binding result [1]: binds
B2	no binding	–	–
B3	no binding	–	–
B4	no binding	–	–
B5	–	binds	–
B6	–	binds	–
B7	–	–	binding result [4]: binds; binding result [5]: no binding
B8	–	–	binding result [6]: binds
B9	–	binds	–
B10	–	binds	–
